Laboratory results published in the supplement of paper PMC10899765.

What was measured:
Conditions in all cases: 20 nM; 72 h
MCF10A [1] = test: 5+ nucleoli phenotype percent effect (relative to siNT 0% and siKIF11 100%); higher = more cells with five or more nucleoli
Protocol: (§1)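 After 72 h, cells were fixed and stained with Hoechst and anti-fibrillarin, and nucleoli per nucleus were counted with CellProfiler. Values are plate-adjusted percent effect for the one-nucleolus and 5+ nucleoli phenotypes, normalised to siNT (0%) and to the positive controls siNOL11 or siKIF11 (100%), as the mean of biological triplicates. Percent viability is the nuclei count relative to siNT.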

MCF10A [2] = test: one-nucleolus phenotype percent effect (relative to siNT 0% and siNOL11 100%); higher = more cells with one nucleolus (ribosome biogenesis inhibition)
Protocol: as §1

MCF10A [3] = test: percent viability (nuclei count relative to siNT); higher = more viable cells
Protocol: as §1

| Sequence | 5+ nucleoli phenotype percent effect (MCF10A [1]) [%] | one-nucleolus phenotype percent effect (MCF10A [2]) [%] | percent viability (MCF10A [3]) [%] |
| --- | --- | --- | --- |
| UAAAGAACUCUUAAAACCCAAU [hsa-miR-3133] | 48.7 | -22.2 | 51.5 |
| UAAAGACUGUAGAGGCAACUGGU [hsa-miR-7161-5p] | 33.8 | -23.4 | 79.8 |
| UAAAGAGCCCUGUGGAGACA [hsa-miR-1276] | -20.8 | 24.1 | 41.4 |
| UAAAGUAAAUAUGCACCAAAA [hsa-miR-559] | 24 | -21.4 | 153 |
| UAAAGUGCUGACAGUGCAGAU [hsa-miR-106b-5p] | 5.03 | -11.2 | 91.2 |
| UAAAGUGCUUAUAGUGCAGGUAG [hsa-miR-20a-5p] | 6.94 | -13.2 | 81.6 |
| UAAAGUGGCAGAGUAUAGACAC [hsa-miR-4796-3p] | -8.21 | -1.57 | 75.7 |
| UAAAUAGAGUAGGCAAAGGACA [hsa-miR-3121-3p] | 15.6 | -18 | 49.3 |
| UAAAUCCCAUGGUGCCUUCUCCU [hsa-miR-605] | -52.1 | 53.8 | 31.2 |
| UAAAUUUCACCUUUCUGAGAAGA [hsa-miR-513c-3p] | -1.66 | 15.7 | 28.5 |
| UAAAUUUCACCUUUCUGAGAAGG [hsa-miR-513a-3p] | -3.52 | 18 | 49 |
| UAACAAACACCUGUAAAACAGC [hsa-miR-5688] | 22.5 | -7.14 | 101 |
| UAACACUGUCUGGUAAAGAUGG [hsa-miR-141-3p] | 44.6 | -19.9 | 83 |
| UAACACUGUCUGGUAACGAUGU [hsa-miR-200a-3p] | 36.9 | -6.99 | 75.6 |
| UAACAGUCUACAGCCAUGGUCG [hsa-miR-132-3p] | -13.6 | -5.13 | 112 |
| UAACAGUCUCCAGUCACGGCC [hsa-miR-212-3p] | 29.7 | -19.5 | 219 |
| UAACAUAAUAGUGUGGAUUGA [hsa-miR-4803] | 40.9 | -25 | 168 |
| UAACCCUGUCCUCUCCCUCCCAG [hsa-miR-6732-3p] | 1.9 | -9.42 | 36.4 |
| UAACGCAUAAUAUGGACAUGU [hsa-miR-3912] | 27.3 | -23.9 | 71.2 |
| UAACGGCCGCGGUACCCUAA [hsa-miR-4485] | -19.2 | 0.183 | 32.8 |

| Sequence | 5+ nucleoli phenotype percent effect (MCF10A [1]) [%] | one-nucleolus phenotype percent effect (MCF10A [2]) [%] | percent viability (MCF10A [3]) [%] |
| --- | --- | --- | --- |
| UAACUGGUUGAACAACUGAACC [hsa-miR-582-3p] | 31.1 | -29.8 | 106 |
| UAAGGAGGGGGAUGAGGGG [hsa-miR-6891-5p] | -18.8 | -7.18 | 51.8 |
| UAAGGCACCCUUCUGAGUAGA [hsa-miR-506-3p] | -31.8 | 57.2 | 15.7 |
| UAAGGGGUGUAUGGCAGAUGCA [hsa-miR-3936] | -17.6 | 36.7 | 19.2 |
| UAAGGUGCAUCUAGUGCAGAUAG [hsa-miR-18a-5p] | -34.5 | 37.7 | 49.1 |
| UAAGGUGCAUCUAGUGCAGUUAG [hsa-miR-18b-5p] | -32.4 | 40.6 | 41.9 |
| UAAGUGCUUCCAUGCUU [hsa-miR-302e] | 65.3 | -16.8 | 93.6 |
| UAAGUGCUUCCAUGUUUCAGUGG [hsa-miR-302c-3p] | 52.1 | -16.2 | 78 |
| UAAGUGCUUCCAUGUUUGAGUGU [hsa-miR-302d-3p] | 63.5 | -16.6 | 68 |
| UAAGUGCUUCCAUGUUUUAGUAG [hsa-miR-302b-3p] | 33.7 | -12.2 | 74.9 |
| UAAGUGCUUCCAUGUUUUGGUGA [hsa-miR-302a-3p] | 72.3 | -15.9 | 78.9 |
| UAAUACUGCCGGGUAAUGAUGGA [hsa-miR-200c-3p] | 62.3 | -17 | 104 |
| UAAUACUGCCUGGUAAUGAUGA [hsa-miR-200b-3p] | 93.4 | -28.6 | 104 |
| UAAUACUGUCUGGUAAAACCGU [hsa-miR-429] | 61.9 | -19 | 112 |
| UAAUCCUUGCUACCUGGGUGAGA [hsa-miR-500a-5p] | -16.1 | 19.3 | 55 |
| UAAUCUCAGCUGGCAACUGUGA [hsa-miR-216a-5p] | -8.01 | 6.23 | 67.7 |
| UAAUGAUUCAUCAGACUCAGAU [hsa-miR-580-5p] | -17.8 | 14 | 32.9 |
| UAAUGCAUUAAAUUAUUGAAGG [hsa-miR-5700] | 47.4 | -23.8 | 125 |
| UAAUGCCCCUAAAAAUCCUUAU [hsa-miR-365a-3p] | 6.01 | 2.74 | 89.5 |
| UAAUGCCCCUAAAAAUCCUUAU [hsa-miR-365b-3p] | -12.3 | 5.41 | 37.9 |

| Sequence | 5+ nucleoli phenotype percent effect (MCF10A [1]) [%] | one-nucleolus phenotype percent effect (MCF10A [2]) [%] | percent viability (MCF10A [3]) [%] |
| --- | --- | --- | --- |
| UAAUUGCUUCCAUGUUU [hsa-miR-302f] | -31.2 | 22.1 | 65.5 |
| UAAUUUUAUGUAUAAGCUAGU [hsa-miR-590-3p] | 34.3 | -23.9 | 121 |
| UACAAGUCAGGAGCUGAAGCAG [hsa-miR-6882-5p] | 1.17 | -8.28 | 45.8 |
| UACACAAGAAAACCAAGGCUCA [hsa-miR-4801] | 20.3 | -13.4 | 82 |
| UACAGAUGCAGAUUCUCUGACUUC [hsa-miR-5683] | 8.12 | 15.3 | 40.9 |
| UACAGCCCUGUGAUCUUUCCAG [hsa-miR-6856-3p] | 21 | -21 | 74.9 |
| UACAGUACUGUGAUAACUGAA [hsa-miR-101-3p] | -26.5 | 11.6 | 86 |
| UACAGUAUAGAUGAUGUACU [hsa-miR-144-3p] | -8.45 | -2.3 | 119 |
| UACAUGGAUGGAAACCUUCAAGC [hsa-miR-4802-3p] | -3.05 | -8.74 | 70.6 |
| UACCACAGGGUAGAACCACGG [hsa-miR-140-3p] | 47.1 | -23.5 | 118 |
| UACCAUUAGAAGAGCUGGAAGA [hsa-miR-6512-5p] | 11 | 1.01 | 78.6 |
| UACCCAGAGCAUGCAGUGUGAA [hsa-miR-1912] | -35.1 | 39.9 | 29.7 |
| UACCCAGUCUCCGGUGCAGCC [hsa-miR-3130-5p] | -32.6 | 44 | 27.4 |
| UACCCAUUGCAUAUCGGAGUUG [hsa-miR-660-5p] | -38.8 | 44.9 | 30 |
| UACCCUGUAGAACCGAAUUUGUG [hsa-miR-10b-5p] | -26.1 | 25.8 | 30.6 |
| UACCCUGUAGAUCCGAAUUUGUG [hsa-miR-10a-5p] | -19.7 | 19.4 | 39.9 |
| UACCUGGGAGACUGAGGUUGGA [hsa-miR-7851-3p] | 24.6 | -15.4 | 61.5 |
| UACGCGCAGACCACAGGAUGUC [hsa-miR-3939] | 11.7 | -5.45 | 38.1 |
| UACGGUGAGCCUGUCAUUAUUC [hsa-miR-433-5p] | -4.1 | 4.21 | 32.9 |
